± gives the uncertainty stated by the source.
B1: Nucleolar transcription factor 1, residues 408 to 469; numbered along this chain, P17480 (parent)
chain: KRPVSAMFIFSEEKRRQLQEERPELSESELTRLLARMWNDLSEKKKAKYKAREAALKAQSER

Variants of: B1
Experiment: abundance fitness (aPCA) (normalised: wild type 0, dead -1); higher = more abundant; growth selection in yeast, the domain comes from the species named
Conditions: Homo sapiens
KRPVSAMFIFSEEKRRQLQEERPELSEYELTRLLARMWNDLSEKKKAKYKAREAALKAQSER [S28Y] gave an abundance fitness of -0.085 ± 0.057.
For KRPVSAMFIFSEEKRRQLQEERPELSERELTRLLARMWNDLSEKKKAKYKAREAALKAQSER [S28R], the abundance fitness was -0.113 ± 0.065.
KRPVSAMFIFSEEKRRQLQEERPELSEDELTRLLARMWNDLSEKKKAKYKAREAALKAQSER [S28D] showed an abundance fitness of 0.055 ± 0.074.
For KRPVSAMFIFSEEKRRQLQEERPELSECELTRLLARMWNDLSEKKKAKYKAREAALKAQSER [S28C], the abundance fitness was -0.043 ± 0.082.
Work on KRPVSAMFIFSEEKRRQLQEERPELSENELTRLLARMWNDLSEKKKAKYKAREAALKAQSER [S28N] yielded an abundance fitness of -0.053 ± 0.05.
For KRPVSAMFIFSEEKRRQLQEERPELSETELTRLLARMWNDLSEKKKAKYKAREAALKAQSER [S28T], the abundance fitness was -0.076 ± 0.056.
Variant KRPVSAMFIFSEEKRRQLQEERPELSEGELTRLLARMWNDLSEKKKAKYKAREAALKAQSER [S28G] has an abundance fitness of -0.047 ± 0.06.
With KRPVSAMFIFSEEKRRQLQEERPELSEPELTRLLARMWNDLSEKKKAKYKAREAALKAQSER [S28P] the abundance fitness was -0.047 ± 0.047.
In the case of KRPVSAMFIFSEEKRRQLQEERPELSEMELTRLLARMWNDLSEKKKAKYKAREAALKAQSER [S28M], the abundance fitness is reported as -0.131 ± 0.067.
In the case of KRPVSAMFIFSEEKRRQLQEERPELSEHELTRLLARMWNDLSEKKKAKYKAREAALKAQSER [S28H], the abundance fitness is reported as -0.06 ± 0.046.
Variant KRPVSAMFIFSEEKRRQLQEERPELSEQELTRLLARMWNDLSEKKKAKYKAREAALKAQSER [S28Q] has an abundance fitness of -0.08 ± 0.071.
KRPVSAMFIFSEEKRRQLQEERPELSEIELTRLLARMWNDLSEKKKAKYKAREAALKAQSER [S28I] gave an abundance fitness of -0.046 ± 0.049.
Work on KRPVSAMFIFSEEKRRQLQEERPELSEEELTRLLARMWNDLSEKKKAKYKAREAALKAQSER [S28E] yielded an abundance fitness of -0.011 ± 0.14.
With KRPVSAMFIFSEEKRRQLQEERPELSEAELTRLLARMWNDLSEKKKAKYKAREAALKAQSER [S28A] the abundance fitness was -0.053 ± 0.058.
In the case of KRPVSAMFIFSEEKRRQLQEERPELSEVELTRLLARMWNDLSEKKKAKYKAREAALKAQSER [S28V], the abundance fitness is reported as -0.089 ± 0.057.
KRPVSAMFIFSEEKRRQLQEERPELSEKELTRLLARMWNDLSEKKKAKYKAREAALKAQSER [S28K] gave an abundance fitness of -0.037 ± 0.09.
In the case of KRPVSAMFIFSEEKRRQLQEERPELSEFELTRLLARMWNDLSEKKKAKYKAREAALKAQSER [S28F], the abundance fitness is reported as -0.071 ± 0.047.
Work on KRPVSAMFIFSEEKRRQLQEERPELSESTLTRLLARMWNDLSEKKKAKYKAREAALKAQSER [E29T] yielded an abundance fitness of -0.157 ± 0.089.
In the case of KRPVSAMFIFSEEKRRQLQEERPELSESVLTRLLARMWNDLSEKKKAKYKAREAALKAQSER [E29V], the abundance fitness is reported as -0.258 ± 0.045.
KRPVSAMFIFSEEKRRQLQEERPELSESFLTRLLARMWNDLSEKKKAKYKAREAALKAQSER [E29F] gave an abundance fitness of -0.603 ± 0.083.
In the case of KRPVSAMFIFSEEKRRQLQEERPELSESMLTRLLARMWNDLSEKKKAKYKAREAALKAQSER [E29M], the abundance fitness is reported as -0.172 ± 0.064.
KRPVSAMFIFSEEKRRQLQEERPELSESHLTRLLARMWNDLSEKKKAKYKAREAALKAQSER [E29H] showed an abundance fitness of -0.223 ± 0.12.
Work on KRPVSAMFIFSEEKRRQLQEERPELSESCLTRLLARMWNDLSEKKKAKYKAREAALKAQSER [E29C] yielded an abundance fitness of -0.223 ± 0.14.
KRPVSAMFIFSEEKRRQLQEERPELSESLLTRLLARMWNDLSEKKKAKYKAREAALKAQSER [E29L] gave an abundance fitness of -0.304 ± 0.047.
With KRPVSAMFIFSEEKRRQLQEERPELSESRLTRLLARMWNDLSEKKKAKYKAREAALKAQSER [E29R] the abundance fitness was -0.496 ± 0.047.
KRPVSAMFIFSEEKRRQLQEERPELSESQLTRLLARMWNDLSEKKKAKYKAREAALKAQSER [E29Q] showed an abundance fitness of -0.111 ± 0.066.
KRPVSAMFIFSEEKRRQLQEERPELSESNLTRLLARMWNDLSEKKKAKYKAREAALKAQSER [E29N] gave an abundance fitness of -0.174 ± 0.11.
Work on KRPVSAMFIFSEEKRRQLQEERPELSESSLTRLLARMWNDLSEKKKAKYKAREAALKAQSER [E29S] yielded an abundance fitness of -0.17 ± 0.067.
Work on KRPVSAMFIFSEEKRRQLQEERPELSESWLTRLLARMWNDLSEKKKAKYKAREAALKAQSER [E29W] yielded an abundance fitness of -0.699 ± 0.069.
KRPVSAMFIFSEEKRRQLQEERPELSESPLTRLLARMWNDLSEKKKAKYKAREAALKAQSER [E29P] showed an abundance fitness of -1.14 ± 0.083.
KRPVSAMFIFSEEKRRQLQEERPELSESILTRLLARMWNDLSEKKKAKYKAREAALKAQSER [E29I] showed an abundance fitness of -0.327 ± 0.14.
For KRPVSAMFIFSEEKRRQLQEERPELSESGLTRLLARMWNDLSEKKKAKYKAREAALKAQSER [E29G], the abundance fitness was -0.2 ± 0.041.
For KRPVSAMFIFSEEKRRQLQEERPELSESYLTRLLARMWNDLSEKKKAKYKAREAALKAQSER [E29Y], the abundance fitness was -0.433 ± 0.096.
KRPVSAMFIFSEEKRRQLQEERPELSESKLTRLLARMWNDLSEKKKAKYKAREAALKAQSER [E29K] showed an abundance fitness of -0.207 ± 0.079.
KRPVSAMFIFSEEKRRQLQEERPELIESELTRLLARMWNDLSEKKKAKYKAREAALKAQSER [S26I] gave an abundance fitness of -0.29 ± 0.17.
With KRPVSAMFIFSEEKRRQLQEERPELPESELTRLLARMWNDLSEKKKAKYKAREAALKAQSER [S26P] the abundance fitness was -0.16 ± 0.09.
KRPVSAMFIFSEEKRRQLQEERPELEESELTRLLARMWNDLSEKKKAKYKAREAALKAQSER [S26E] gave an abundance fitness of -0.109 ± 0.062.
With KRPVSAMFIFSEEKRRQLQEERPELLESELTRLLARMWNDLSEKKKAKYKAREAALKAQSER [S26L] the abundance fitness was -0.231 ± 0.07.
In the case of KRPVSAMFIFSEEKRRQLQEERPELMESELTRLLARMWNDLSEKKKAKYKAREAALKAQSER [S26M], the abundance fitness is reported as -0.052 ± 0.088.
With KRPVSAMFIFSEEKRRQLQEERPELYESELTRLLARMWNDLSEKKKAKYKAREAALKAQSER [S26Y] the abundance fitness was -0.536 ± 0.2.
Work on KRPVSAMFIFSEEKRRQLQEERPELWESELTRLLARMWNDLSEKKKAKYKAREAALKAQSER [S26W] yielded an abundance fitness of -0.944 ± 0.094.
In the case of KRPVSAMFIFSEEKRRQLQEERPELQESELTRLLARMWNDLSEKKKAKYKAREAALKAQSER [S26Q], the abundance fitness is reported as -0.104 ± 0.085.
In the case of KRPVSAMFIFSEEKRRQLQEERPELHESELTRLLARMWNDLSEKKKAKYKAREAALKAQSER [S26H], the abundance fitness is reported as -0.182 ± 0.1.
